Common to all, as to test: cell-based or functional assay
In test [1] the target is T1, Thermolysin from Geobacillus stearothermophilus (Geobacillus stearothermophilus, UniProt P00800 233-548).
T1 sequence (looked up): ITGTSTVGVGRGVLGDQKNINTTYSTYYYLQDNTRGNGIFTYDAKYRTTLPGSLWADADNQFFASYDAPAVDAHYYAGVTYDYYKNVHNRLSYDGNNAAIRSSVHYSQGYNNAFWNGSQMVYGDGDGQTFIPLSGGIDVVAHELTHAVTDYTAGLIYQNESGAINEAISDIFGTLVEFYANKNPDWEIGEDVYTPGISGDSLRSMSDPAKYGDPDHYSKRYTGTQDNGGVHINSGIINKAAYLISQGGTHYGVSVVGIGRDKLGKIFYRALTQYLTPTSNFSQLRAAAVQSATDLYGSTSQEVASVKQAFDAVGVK

Test [2] addresses T2, Human neutrophil elastase (HNE) (human, UniProt P08246 30-267).
T2 sequence (looked up): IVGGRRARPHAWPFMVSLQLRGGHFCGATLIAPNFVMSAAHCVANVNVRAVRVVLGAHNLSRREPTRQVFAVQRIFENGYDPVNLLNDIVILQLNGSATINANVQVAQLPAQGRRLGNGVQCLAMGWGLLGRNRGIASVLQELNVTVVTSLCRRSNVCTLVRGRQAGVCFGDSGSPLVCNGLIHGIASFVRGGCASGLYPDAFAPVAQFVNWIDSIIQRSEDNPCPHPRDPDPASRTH

Test [3] deals with Bovine pancreatic α-chymotrypsin (bovine).

B1: Human alpha-2 macroglobulin-like 1 (A2ML1), recombinant wild type, native (natural protein, UniProt A8K2U0 18-1454, looked up)
chain: EELPNYLVTLPARLNFPSVQKVCLDLSPGYSDVKFTVTLETKDKTQKLLEYSGLKKRHLHCISFLVPPPAGGTEEVATIRVSGVGNNISFEEKKKVLIQRQGNGTFVQTDKPLYTPGQQVYFRIVTMDSNFVPVNDKYSMVELQDPNSNRIAQWLEVVPEQGIVDLSFQLAPEAMLGTYTVAVAEGKTFGTFSVEEYVLPKFKVEVVEPKELSTVQESFLVKICCRYTYGKPMLGAVQVSVCQKANTYWYREVEREQLPDKCRNLSGQTDKTGCFSAPVDMATFDLIGYAYSHQINIVATVVEEGTGVEANATQNIYISPQMGSMTFEDTSNFYHPNFPFSGKIRVRGHDDSFLKNHLVFLVIYGTNGTFNQTLVTDNNGLAPFTLETSGWNGTDVSLEGKFQMEDLVYNPEQVPRYYQNAYLHLRPFYSTTRSFLGIHRLNGPLKCGQPQEVLVDYYIDPADASPDQEISFSYYLIGKGSLVMEGQKHLNSKKKGLKASFSLSLTFTSRLAPDPSLVIYAIFPSGGVVADKIQFSVEMCFDNQVSLGFSPSQQLPGAEVELQLQAAPGSLCALRAVDESVLLLRPDRELSNRSVYGMFPFWYGHYPYQVAEYDQCPVSGPWDFPQPLIDPMPQGHSSQRSIIWRPSFSEGTDLFSFFRDVGLKILSNAKIKKPVDCSHRSPEYSTAMGAGGGHPEAFESSTPLHQAEDSQVRQYFPETWLWDLFPIGNSGKEAVHVTVPDAITEWKAMSFCTSQSRGFGLSPTVGLTAFKPFFVDLTLPYSVVRGESFRLTATIFNYLKDCIRVQTDLAKSHEYQLESWADSQTSSCLCADDAKTHHWNITAVKLGHINFTISTKILDSNEPCGGQKGFVPQKGRSDTLIKPVLVKPEGVLVEKTHSSLLCPKGKVASESVSLELPVDIVPDSTKAYVTVLGDIMGTALQNLDGLVQMPSGCGEQNMVLFAPIIYVLQYLEKAGLLTEEIRSRAVGFLEIGYQKELMYKHSNGSYSAFGERDGNGNTWLTAFVTKCFGQAQKFIFIDPKNIQDALKWMAGNQLPSGCYANVGNLLHTAMKGGVDDEVSLTAYVTAALLEMGKDVDDPMVSQGLRCLKNSATSTTNLYTQALLAYIFSLAGEMDIRNILLKQLDQQAIISGESIYWSQKPTPSSNASPWSEPAAVDVELTAYALLAQLTKPSLTQKEIAKATSIVAWLAKQHNAYGGFSSTQDTVVALQALAKYATTAYMPSEEINLVVKSTENFQRTFNIQSVNRLVFQQDTLPNVPGMYTLEASGQGCVYVQTVLRYNILPPTNMKTFSLSVEIGKARCEQPTSPRSLTLTIHTSYVGSRSSSNMAIVEVKMLSGFSPMEGTNQLLLQQPLVKKVEFGTDTLNIYLDELIKNTQTYTFTISQSVLVTNLKPATIKVYDYYLPDEQATIQYSDPCE
modifications: internal thioester Cys970-Gln973; N-glycans (Asn120, Asn328, Asn857 named)
For the molecule B1, in test [1], the “inhibition of thermolysin's β-casein-cleaving activity, A2ML1:thermolysin molar ratios up to 4:1, without BAPN” value was ~95 % inhibited. Besides, the “inhibition of β-casein-cleaving activity at a 4:1 A2ML1:protease molar ratio” value is ~10 % inhibited in test [2] and ~65 % inhibited in test [3].

The values above are taken from article PMC9156758, “Cryo-EM structures of human A2ML1 elucidate the protease-inhibitory mechanism of the A2M family” (Nature Communications, 2022).
